Where two headings read alike, the source gives them in different places. Values belong to the binder of their own block, whether it stands above or below them.
B2: Fus3 (wild type), in vitro translated, 35S-labelled (enzyme, S. cerevisiae, UniProt P16892 1-353, looked up)
chain: MPKRIVYNISSDFQLKSLLGEGAYGVVCSATHKPTGEIVAIKKIEPFDKPLFALRTLREIKILKHFKHENIITIFNIQRPDSFENFNEVYIIQELMQTDLHRVISTQMLSDDHIQYFIYQTLRAVKVLHGSNVIHRDLKPSNLLINSNCDLKVCDFGLARIIDESAADNSEPTGQQSGMTEYVATRWYRAPEVMLTSAKYSRAMDVWSCGCILAELFLRRPIFPGRDYRHQLLLIFGIIGTPHSDNDLRCIESPRAREYIKSLPMYPAAPLEKMFPRVNPKGIDLLQRMLVFDPAKRITAKEALEHPYLQTYHDPNDEPEGEPIPPSFFEFDHYKEALTTKDLKKLIWNEIFS
modifications: [35S]methionine label
B3: GST-Dig2_(98-114) (domain or fragment, S. cerevisiae, UniProt Q03373 98-114, looked up)
chain: SLKRKRVPPALNFSDIQ
B5: GST-Ste5_(241-336) (domain or fragment, S. cerevisiae, UniProt P32917 241-336, looked up)
chain: PENDELKDILISDFLIHKIPDSELSITPQSRFPPYSPLLPPFGLSYTPVERQTIYSQAPSLNPNLILAAPPKERNQIPQKKSNYTFLHSPLGHRRI
B8: Kss1 (wild type), in vitro translated, 35S-labelled (enzyme, S. cerevisiae, UniProt P14681 1-368, looked up)
chain: MARTITFDIPSQYKLVDLIGEGAYGTVCSAIHKPSGIKVAIKKIQPFSKKLFVTRTIREIKLLRYFHEHENIISILDKVRPVSIDKLNAVYLVEELMETDLQKVINNQNSGFSTLSDDHVQYFTYQILRALKSIHSAQVIHRDIKPSNLLLNSNCDLKVCDFGLARCLASSSDSRETLVGFMTEYVATRWYRAPEIMLTFQEYTTAMDIWSCGCILAEMVSGKPLFPGRDYHHQLWLILEVLGTPSFEDFNQIKSKRAKEYIANLPMRPPLPWETVWSKTDLNPDMIDLLDKMLQFNPDKRISAAEALRHPYLAMYHDPSDEPEYPPLNLDDEFWKLDNKIMRPEEEEEVPIEMLKDMLYDELMKTME
modifications: [35S]methionine label
B10: GST-Ste7_(1-98) (domain or fragment, S. cerevisiae, UniProt P06784 1-98, looked up)
chain: MFQRKTLQRRNLKGLNLNLHPDVGNNGQLQEKTETHQGQSRIEGHVMSNINAIQNNSNLFLRRGIKKKLTLDAFGDDQAISKPNTVVIQQPQNEPVLV

Legend:
[1] = target: T1, Kss1-GBD (wild-type Kss1 fused to the Gal4 DNA-binding domain) (S. cerevisiae, UniProt P14681 1-368); experiment: two-hybrid
T1 sequence (looked up): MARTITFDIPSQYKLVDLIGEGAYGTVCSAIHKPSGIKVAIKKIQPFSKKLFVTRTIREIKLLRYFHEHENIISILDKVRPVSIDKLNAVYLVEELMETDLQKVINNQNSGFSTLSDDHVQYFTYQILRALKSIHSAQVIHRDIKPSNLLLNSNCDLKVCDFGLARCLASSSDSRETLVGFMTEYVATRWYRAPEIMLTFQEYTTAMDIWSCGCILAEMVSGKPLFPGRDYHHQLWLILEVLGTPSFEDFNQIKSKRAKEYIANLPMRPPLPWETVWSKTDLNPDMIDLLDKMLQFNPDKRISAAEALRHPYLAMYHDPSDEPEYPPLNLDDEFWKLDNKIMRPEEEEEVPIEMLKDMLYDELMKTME

GST-Dig1_(93-111) = target: T2, GST-Dig1_(93-111) (S. cerevisiae, UniProt Q03063 93-111); experiment: pull-down
T2 chain (looked up): KKSLKRGRVPAPLNLSDSN

GST-Dig2_(98-114) = target: B3; experiment: pull-down
GST-Ste5_(241-336) = target: B5; experiment: pull-down
GST-Ste7_(1-98) = target: B10; experiment: pull-down
GST-Dig1_(213-452) = target: T3, GST-Dig1_(213-452) (S. cerevisiae, UniProt Q03063 213-452); experiment: pull-down
T3 sequence (looked up): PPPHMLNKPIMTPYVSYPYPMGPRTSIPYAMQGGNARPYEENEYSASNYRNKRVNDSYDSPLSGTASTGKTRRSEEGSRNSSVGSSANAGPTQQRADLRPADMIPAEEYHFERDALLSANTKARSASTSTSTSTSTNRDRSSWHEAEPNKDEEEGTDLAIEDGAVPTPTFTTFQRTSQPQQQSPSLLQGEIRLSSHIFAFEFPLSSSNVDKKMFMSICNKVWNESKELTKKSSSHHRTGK

[2] = target: B2; experiment: pull-down
[3] = target: B8; experiment: pull-down
[4] = target: B2; experiment: pull-down; remark: listed apart in the source
[5] = target: B8; experiment: pull-down; remark: listed apart in the source

Binder: B2
fold higher affinity than Kss1 for the same D-site (GST-Dig1_(93-111)): ~17 fold | fold higher affinity than Kss1 for the same D-site (GST-Dig2_(98-114)): ~17 fold | fold higher affinity than for the Dig1 D-site (GST-Dig2_(98-114)): ~3 fold | percent of input bound (GST-Ste5_(241-336)): 12.6 % of input | percent of input bound (GST-Ste7_(1-98)): 14 % of input | percent of input bound (GST-Dig1_(213-452)): 0.6 % of input

Binder: B3
Kd [2]: ~1000 nM

Binder: B5
Kd [3]: ~6500 nM | Kd [4]: ~1000 nM

Binder: B8
fold higher affinity than for the Dig1 D-site (GST-Dig2_(98-114)): ~3 fold | percent of input bound (GST-Ste5_(241-336)): 3.7 % of input | percent of input bound (GST-Ste7_(1-98)): 9 % of input | percent of input bound (GST-Dig1_(213-452)): 1.3 % of input

Binder: B10
Kd [3]: ~100 nM | Kd [4]: ~100 nM

Next, values leading:

fold above background (two-hybrid reporter) [1]: 23 fold
B1: full-length Dig2-GAD (natural protein, S. cerevisiae, UniProt Q03373 1-323, looked up)
chain: MNKEEQEDPQQEQISTVQENDPRNLQQLGMLLVSPGLDEDRLSEKMISKIKKSRDIEKNQKLLISRLSQKEEDHSGKPPTITTSPAEKTVPFKSLNHSLKRKRVPPALNFSDIQASSHLHGSKSAPPNITRFPQHKNSLRVRYMGRMAPTNQDYHPSVANSYMTATYPYPYTGLPPVPCYPYSSTPTQTHAYEGYYSPMYPGPLYNNGIIPADYHAKRKKLAGRSPHLEDLTSRKRTFVSKHHNGDPIISKTDEDIECSVTKNSLSEGASLNDDADDDNDKERIIIGEISLYDDVFKFEVRDDKNDYMKACETIWTEWHNLKK

percent of wild-type binding (GST-Ste7_(1-98)): < 1 % of wild-type
B4: Fus3-7m2 (D317N), in vitro translated, 35S-labelled (enzyme, S. cerevisiae, UniProt P16892 1-353, looked up)
chain: MPKRIVYNISSDFQLKSLLGEGAYGVVCSATHKPTGEIVAIKKIEPFDKPLFALRTLREIKILKHFKHENIITIFNIQRPDSFENFNEVYIIQELMQTDLHRVISTQMLSDDHIQYFIYQTLRAVKVLHGSNVIHRDLKPSNLLINSNCDLKVCDFGLARIIDESAADNSEPTGQQSGMTEYVATRWYRAPEVMLTSAKYSRAMDVWSCGCILAELFLRRPIFPGRDYRHQLLLIFGIIGTPHSDNDLRCIESPRAREYIKSLPMYPAAPLEKMFPRVNPKGIDLLQRMLVFDPAKRITAKEALEHPYLQTYHDPNNEPEGEPIPPSFFEFDHYKEALTTKDLKKLIWNEIFS
modifications: [35S]methionine label

Kd [5]: ~2000 nM
B6: GST-Ste12_(298-473) (domain or fragment, S. cerevisiae, UniProt P13574 298-473, looked up)
chain: AKGRDEEDFPLDYFPVSVEYPTEENAFDPFPPQAFTPAAPSMPISYDNVNERDSMPVNSLLNRYPYQLSVAPTFPVPPSSSRQHFMTNRDFYSSNNNKEKLVSPSDPTSYMKYDEPVMDFDESRPNENCTNAKSHNSGQQTKQHQLYSNNFQQSYPNGMVPGYYPKMPYNPMGGDP

fold above background (two-hybrid reporter) [1]: 4 fold
B7: Ste12-GAD (Ste12 fused to the Gal4 transcriptional activation domain) (natural protein, S. cerevisiae, UniProt P13574 1-688, looked up)
chain: MKVQITNSRTEEILKVQANNENDEVSKATPGEVEESLRLIGDLKFFLATAPVNWQENQIIRRYYLNSGQGFVSCVFWNNLYYITGTDIVKCCLYRMQKFGREVVQKKKFEEGIFSDLRNLKCGIDATLEQPKSEFLSFLFRNMCLKTQKKQKVFFWFSVAHDKLFADALERDLKRESLNQPSTTKPVNEPALSFSYDSSSDKPLYDQLLQHLDSRRPSSTTKSDNSPPKLESENFKDNELVTVTNQPLLGVGLMDDDAPESPSQINDFIPQKLIIEPNTLELNGLTEETPHDLPKNTAKGRDEEDFPLDYFPVSVEYPTEENAFDPFPPQAFTPAAPSMPISYDNVNERDSMPVNSLLNRYPYQLSVAPTFPVPPSSSRQHFMTNRDFYSSNNNKEKLVSPSDPTSYMKYDEPVMDFDESRPNENCTNAKSHNSGQQTKQHQLYSNNFQQSYPNGMVPGYYPKMPYNPMGGDPLLDQAFYGADDFFFPPEGCDNNMLYPQTATSWNVLPPQAMQPAPTYVGRPYTPNYRSTPGSAMFPYMQSSNSMQWNTAVSPYSSRAPSTTAKNYPPSTFYSQNINQYPRRRTVGMKSSQGNVPTGNKQSVGKSAKISKPLHIKTSAYQKQYKINLETKARPSAGDEDSAHPDKNKEISMPTPDSNTLVVQSEEGGAHSLEVDTNRRSDKNLPDAT

fold above background (two-hybrid reporter) [1]: 3 fold
B9: full-length Dig1-GAD (natural protein, S. cerevisiae, UniProt Q03063 1-452, looked up)
chain: MAVSARLRTTAEDTSIAKSTQDPIGDTEISVANAKGSSDSNIKNSPGGNSVGQESELEHVPEEDDSGDKEADHEDSETATAKKRKAQPLKNPKKSLKRGRVPAPLNLSDSNTNTHGGNIKDGNLASSNSAHFPPVANQNVKSAPAQVTQHSKFQPRVQYLGKASSRQSIQVNNSSNSYGKPHMPSAGIMSAMNPYMPMNRYIMSPYYNPYGIPPPHMLNKPIMTPYVSYPYPMGPRTSIPYAMQGGNARPYEENEYSASNYRNKRVNDSYDSPLSGTASTGKTRRSEEGSRNSSVGSSANAGPTQQRADLRPADMIPAEEYHFERDALLSANTKARSASTSTSTSTSTNRDRSSWHEAEPNKDEEEGTDLAIEDGAVPTPTFTTFQRTSQPQQQSPSLLQGEIRLSSHIFAFEFPLSSSNVDKKMFMSICNKVWNESKELTKKSSSHHRTGK

Reference: PMC2172336 (The Journal of Cell Biology, 2004)
